The supplement of paper PMC7877785
± gives the uncertainty stated by the source.

Assay: self-splicing fitness, log relative to wild type (ln ratio); higher = more splicing; Tetrahymena group I intron in knt gene, E. coli kanamycin selection, DiMSum; sequences stand for … in CUCUCU…GGAGGGAAAAGUUAUCAGGCAUGCACCUGGUAGCUAGUCUUUAAACCAAUAGAUUGCAUCGGUUUAAAAGGCAAGACCGUCAAAUUGCGGGAAAGGGGUCAACAGCCGUUCAGUACCAAGUCUCAGGGGAAACUUUGAGAUGGCCUUGCAAAGGGUAUGGUAAUAAGCUGACGGACAUGGUCCUAACCACGCAGCCAAGUCCUAAGUCAACAGAUCUUCUGUUGAUAUGGAUGCAGUUCACAGACUAAAUGUCGGUCGGGGAAGAUGUAUUCUUCUCAUAAGAUAUAGUCGGACCUCUCCUUAAUGGGAGCUAGCGGAUGAAGUGAUGCAACACUGGAGCCGCUGGGAACUAAUUUGUAUGCGAAAGUAUAUUGAUUAGUUUUGGAGUACUCGUGGUCG
In short: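 Pooled colonies went to amplicon sequencing on an Illumina HiSeq 2500 after six replicate transformations. The plates were LB agar with 100 μg/mL carbenicillin, 50 μM IPTG and 0.2% rhamnose, with or without 25 μg/mL kanamycin, incubated overnight at 37°C or 30°C. The E. coli BL21(DE3) library had all eight P1ex-region intron nucleotides randomised, the intron placed in the knt kanamycin-resistance gene on pET-22b(+). DiMSum fitness is the error-weighted combination of replicate fold changes, kanamycin against none, normalised to wild type.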

Sequence	self-splicing fitness (ln) (30 °C)	self-splicing fitness (ln) (37 °C)
ACGCAGCAAUAUUACGGUAA	-2.69 ± 0.12	-1.02 ± 0.082
ACGCAGCAAUAUUACGUACU	-1.12 ± 0.077	-0.434 ± 0.088
ACGCAGCAAUAUUACGUAGC	-3.47 ± 0.12	-1.89 ± 0.14
ACGCAGCAAUAUUACGUAGU	-2.76 ± 0.087	-1.92 ± 0.1
ACGCAGCAAUAUUACGUAUU	-3.49 ± 0.32	-2 ± 0.16
ACGCAGCAAUAUUACGUCUA	-1.55 ± 0.096	-1.22 ± 0.08
ACGGAGCAAUAUUACGACUA	-2.73 ± 0.35	-2.09 ± 0.24
ACGGAGCAAUAUUACGACUG	-1.95 ± 0.14	-0.681 ± 0.13
ACGGAGCAAUAUUACGAGGC	-2.43 ± 0.19	-2.07 ± 0.31
ACGGAGCAAUAUUACGAUAC	-2.35 ± 0.18	-1.98 ± 0.22
ACGGAGCAAUAUUACGCGAA	-3.05 ± 0.32	-1.57 ± 0.23
ACGGAGCAAUAUUACGCUAU	-3.81 ± 0.23	-2.1 ± 0.19
ACGGAGCAAUAUUACGCUGA	-1.48 ± 0.17	-1.9 ± 0.21
ACGGAGCAAUAUUACGGAAA	–	-2.15 ± 0.24
ACGGAGCAAUAUUACGGCAA	-2.98 ± 0.3	-2.61 ± 0.27
ACGGAGCAAUAUUACGGCAC	-3.21 ± 0.28	-2.43 ± 0.23
ACGGAGCAAUAUUACGGCAG	–	-1.07 ± 0.44
ACGGAGCAAUAUUACGGCGG	-1.4 ± 0.12	-0.413 ± 0.13
ACGGAGCAAUAUUACGGGGA	-1.07 ± 0.24	-3.6 ± 0.42
ACGGAGCAAUAUUACGUACG	-2.38 ± 0.45	–
ACGGAGCAAUAUUACGUCAU	-4.36 ± 0.37	-3.01 ± 0.37
ACGGAGCAAUAUUACGUGUG	-3.92 ± 0.19	-2.56 ± 0.14
ACGGAGCAAUAUUACGUUAA	-2.65 ± 0.23	-3.13 ± 0.47
ACGUAGCAAUAUUACGAACU	-0.677 ± 0.059	-0.266 ± 0.082

Sequence	self-splicing fitness (ln) (30 °C)	self-splicing fitness (ln) (37 °C)
ACGUAGCAAUAUUACGACCA	-0.97 ± 0.086	-0.34 ± 0.1
ACGUAGCAAUAUUACGAGGU	-3.36 ± 0.21	-2.02 ± 0.2
ACGUAGCAAUAUUACGAUCA	-0.757 ± 0.1	-0.359 ± 0.086
ACGUAGCAAUAUUACGAUCG	-1.15 ± 0.1	-0.0917 ± 0.12
ACGUAGCAAUAUUACGAUUU	0.256 ± 0.059	-0.149 ± 0.073
ACGUAGCAAUAUUACGCAAG	-3.16 ± 0.24	-3.03 ± 0.22
ACGUAGCAAUAUUACGCAGC	-3.26 ± 0.26	-2.71 ± 0.25
ACGUAGCAAUAUUACGCAGG	-3.67 ± 0.24	0.325 ± 0.1
ACGUAGCAAUAUUACGGCAG	-4.15 ± 0.28	-2.61 ± 0.33
ACGUAGCAAUAUUACGGCAU	-1.31 ± 0.1	-0.11 ± 0.099
ACGUAGCAAUAUUACGGCGG	-1.65 ± 0.1	-0.812 ± 0.11
ACGUAGCAAUAUUACGUACC	-1.4 ± 0.13	-0.541 ± 0.19
ACGUAGCAAUAUUACGUACG	-2.3 ± 0.19	-1.35 ± 0.23
ACGUAGCAAUAUUACGUCAA	-3.44 ± 0.27	-2.34 ± 0.19
ACGUAGCAAUAUUACGUGAC	-2.84 ± 0.14	-2.94 ± 0.22
ACGUAGCAAUAUUACGUGCC	-1.54 ± 0.22	-0.492 ± 0.24
ACUAAGCAAUAUUACGAAUA	-2.99 ± 0.23	-2.55 ± 0.25
ACUAAGCAAUAUUACGAGUG	-1.42 ± 0.08	-0.758 ± 0.11
ACUAAGCAAUAUUACGAUGG	-0.371 ± 0.1	-0.661 ± 0.16
ACUAAGCAAUAUUACGCAAA	-2.51 ± 0.24	-1.77 ± 0.24
ACUAAGCAAUAUUACGCAAC	-3.28 ± 0.26	-1.17 ± 0.27
ACUAAGCAAUAUUACGCAAG	-1.79 ± 0.074	-1.49 ± 0.096
ACUAAGCAAUAUUACGCACA	-1.23 ± 0.11	0.0989 ± 0.1
ACUAAGCAAUAUUACGCGCG	-0.732 ± 0.096	-0.0128 ± 0.13

Sequence	self-splicing fitness (ln) (30 °C)	self-splicing fitness (ln) (37 °C)
ACUAAGCAAUAUUACGCGGG	-2.3 ± 0.18	-1.36 ± 0.15
ACUAAGCAAUAUUACGCUAG	-2.68 ± 0.14	-1.82 ± 0.17
ACUAAGCAAUAUUACGCUGU	-2.77 ± 0.17	-2.58 ± 0.35
ACUAAGCAAUAUUACGGAAC	-3.33 ± 0.29	-2.77 ± 0.32
ACUAAGCAAUAUUACGGACC	-1.4 ± 0.15	-0.596 ± 0.19
ACUAAGCAAUAUUACGGAGA	-1.36 ± 0.23	-3.35 ± 0.33
ACUAAGCAAUAUUACGGCAU	-0.539 ± 0.062	-0.563 ± 0.09
ACUAAGCAAUAUUACGGCUA	-0.685 ± 0.085	0.0711 ± 0.11
ACUAAGCAAUAUUACGGGAA	-2.17 ± 0.11	-1.75 ± 0.15
ACUAAGCAAUAUUACGGGCG	-0.856 ± 0.091	-0.529 ± 0.1
ACUAAGCAAUAUUACGGGUG	-0.981 ± 0.06	-0.673 ± 0.097
ACUAAGCAAUAUUACGGGUU	-3.17 ± 0.16	-2.34 ± 0.23
ACUAAGCAAUAUUACGGUAA	-1.56 ± 0.17	-1.92 ± 0.18
ACUAAGCAAUAUUACGGUCC	-2.35 ± 0.2	-1.04 ± 0.23
ACUAAGCAAUAUUACGGUCG	-2.89 ± 0.16	-1.47 ± 0.15
ACUAAGCAAUAUUACGGUGA	-1.54 ± 0.093	-0.619 ± 0.13
ACUAAGCAAUAUUACGUAAG	-1.05 ± 0.069	-0.663 ± 0.089
ACUAAGCAAUAUUACGUAUA	-1.9 ± 0.13	-0.679 ± 0.12
ACUAAGCAAUAUUACGUCCG	-1.69 ± 0.12	-0.322 ± 0.17
ACUAAGCAAUAUUACGUGAA	-1.24 ± 0.074	-0.939 ± 0.1
ACUAAGCAAUAUUACGUGGC	-3.03 ± 0.14	-2.57 ± 0.17
ACUCAGCAAUAUUACGAAAC	-2.62 ± 0.092	-1.43 ± 0.11
ACUCAGCAAUAUUACGAACA	-1.16 ± 0.076	-0.892 ± 0.09
ACUCAGCAAUAUUACGAAGU	-3 ± 0.14	-1.75 ± 0.14

Sequence	self-splicing fitness (ln) (30 °C)	self-splicing fitness (ln) (37 °C)
ACUCAGCAAUAUUACGAAUC	–	-1.05 ± 0.32
ACUCAGCAAUAUUACGACAA	-0.977 ± 0.27	-1.18 ± 0.24
ACUCAGCAAUAUUACGACUG	-3.86 ± 0.23	-1.47 ± 0.14
ACUCAGCAAUAUUACGAGAC	-2.7 ± 0.24	-1.87 ± 0.17
ACUCAGCAAUAUUACGAGAG	-2.02 ± 0.14	-0.637 ± 0.12
ACUCAGCAAUAUUACGAGGC	-3.27 ± 0.34	-2.56 ± 0.3
ACUCAGCAAUAUUACGAUAA	-1.25 ± 0.078	-0.67 ± 0.097
ACUCAGCAAUAUUACGAUGC	-0.776 ± 0.066	-0.0529 ± 0.075
ACUCAGCAAUAUUACGAUGG	-1.1 ± 0.063	-0.87 ± 0.1
ACUCAGCAAUAUUACGCACA	-0.835 ± 0.083	-0.539 ± 0.1
ACUCAGCAAUAUUACGCCAC	-2.88 ± 0.21	–
ACUCAGCAAUAUUACGCCCU	-0.136 ± 0.15	0.51 ± 0.17
ACUCAGCAAUAUUACGCUGU	-3.46 ± 0.19	-1.4 ± 0.17
ACUCAGCAAUAUUACGGAAG	-0.707 ± 0.088	-0.89 ± 0.13
ACUCAGCAAUAUUACGGACU	0.409 ± 0.086	-0.57 ± 0.087
ACUCAGCAAUAUUACGGUAG	-3.73 ± 0.13	-2.92 ± 0.15
ACUCAGCAAUAUUACGGUGA	-2.73 ± 0.12	-1.23 ± 0.095
ACUCAGCAAUAUUACGUCGU	-1.42 ± 0.07	-0.573 ± 0.081
ACUCAGCAAUAUUACGUGAC	-3.15 ± 0.14	-0.561 ± 0.11
ACUCAGCAAUAUUACGUUUA	-1.54 ± 0.078	-0.51 ± 0.086
ACUGAGCAAUAUUACGAAAU	-2.94 ± 0.24	-1.72 ± 0.22
ACUGAGCAAUAUUACGAAUU	-2.97 ± 0.29	-2.1 ± 0.24
ACUGAGCAAUAUUACGACCA	-2.57 ± 0.39	-1.1 ± 0.28
ACUGAGCAAUAUUACGAUUC	-2.78 ± 0.5	-1.57 ± 0.31
